{"source": "patent US12630600B2", "about": "(MEDIMMUNE LIMITED, priority 2022, dated 2026)", "binders": {"B1": {"name": "Peptide 22 (peptide)", "peptide": "H[Aib]HGS[αMeF]TSDVSK[αMeF]LDSK([AEEA-AEEA-γGlu-γGlu-C20 diacid])AAQD[αMeF]VESIANT-NH2", "modifications": "N-terminus assumed", "SMILES": "CC[C@H](C)[C@H](NC(=O)[C@H](CO)NC(=O)[C@H](CCC(=O)O)NC(=O)[C@@H](NC(=O)[C@](C)(Cc1ccccc1)NC(=O)[C@H](CC(=O)O)NC(=O)[C@H](CCC(N)=O)NC(=O)[C@H](C)NC(=O)[C@H](C)NC(=O)[C@H](CCCCNC(=O)COCCOCCNC(=O)COCCOCCNC(=O)CC[C@H](NC(=O)CC[C@H](NC(=O)CCCCCCCCCCCCCCCCCCC(=O)O)C(=O)O)C(=O)O)NC(=O)[C@H](CO)NC(=O)[C@H](CC(=O)O)NC(=O)[C@H](CC(C)C)NC(=O)[C@](C)(Cc1ccccc1)NC(=O)[C@H](CCCCN)NC(=O)[C@H](CO)NC(=O)[C@@H](NC(=O)[C@H](CC(=O)O)NC(=O)[C@H](CO)NC(=O)[C@@H](NC(=O)[C@](C)(Cc1ccccc1)NC(=O)[C@H](CO)NC(=O)CNC(=O)[C@H](Cc1c[nH]cn1)NC(=O)C(C)(C)NC(=O)[C@@H](N)Cc1c[nH]cn1)[C@@H](C)O)C(C)C)C(C)C)C(=O)N[C@@H](C)C(=O)N[C@@H](CC(N)=O)C(=O)N[C@H](C(N)=O)[C@@H](C)O"}, "B2": {"name": "Peptide 23 (peptide)", "peptide": "H[Aib]HGS[αMeF]TSDVSK[αMeF]LDSK([AEEA-AEEA-γGlu-C18 diacid])AAQD[αMeF]VESIANT-NH2", "modifications": "N-terminus assumed", "SMILES": "CC[C@H](C)[C@H](NC(=O)[C@H](CO)NC(=O)[C@H](CCC(=O)O)NC(=O)[C@@H](NC(=O)[C@](C)(Cc1ccccc1)NC(=O)[C@H](CC(=O)O)NC(=O)[C@H](CCC(N)=O)NC(=O)[C@H](C)NC(=O)[C@H](C)NC(=O)[C@H](CCCCNC(=O)COCCOCCNC(=O)COCCOCCNC(=O)CC[C@H](NC(=O)CCCCCCCCCCCCCCCCC(=O)O)C(=O)O)NC(=O)[C@H](CO)NC(=O)[C@H](CC(=O)O)NC(=O)[C@H](CC(C)C)NC(=O)[C@](C)(Cc1ccccc1)NC(=O)[C@H](CCCCN)NC(=O)[C@H](CO)NC(=O)[C@@H](NC(=O)[C@H](CC(=O)O)NC(=O)[C@H](CO)NC(=O)[C@@H](NC(=O)[C@](C)(Cc1ccccc1)NC(=O)[C@H](CO)NC(=O)CNC(=O)[C@H](Cc1c[nH]cn1)NC(=O)C(C)(C)NC(=O)[C@@H](N)Cc1c[nH]cn1)[C@@H](C)O)C(C)C)C(C)C)C(=O)N[C@@H](C)C(=O)N[C@@H](CC(N)=O)C(=O)N[C@H](C(N)=O)[C@@H](C)O"}, "B3": {"name": "Peptide 24 (peptide)", "peptide": "H[Aib]HGS[αMeF]TSDVSK[αMeF]LDSK([AEEA-AEEA-γGlu-C18 diacid])AAQD[αMeF]VQ[Aib]IANT-NH2", "modifications": "N-terminus assumed", "SMILES": "CC[C@H](C)[C@H](NC(=O)C(C)(C)NC(=O)[C@H](CCC(N)=O)NC(=O)[C@@H](NC(=O)[C@](C)(Cc1ccccc1)NC(=O)[C@H](CC(=O)O)NC(=O)[C@H](CCC(N)=O)NC(=O)[C@H](C)NC(=O)[C@H](C)NC(=O)[C@H](CCCCNC(=O)COCCOCCNC(=O)COCCOCCNC(=O)CC[C@H](NC(=O)CCCCCCCCCCCCCCCCC(=O)O)C(=O)O)NC(=O)[C@H](CO)NC(=O)[C@H](CC(=O)O)NC(=O)[C@H](CC(C)C)NC(=O)[C@](C)(Cc1ccccc1)NC(=O)[C@H](CCCCN)NC(=O)[C@H](CO)NC(=O)[C@@H](NC(=O)[C@H](CC(=O)O)NC(=O)[C@H](CO)NC(=O)[C@@H](NC(=O)[C@](C)(Cc1ccccc1)NC(=O)[C@H](CO)NC(=O)CNC(=O)[C@H](Cc1c[nH]cn1)NC(=O)C(C)(C)NC(=O)[C@@H](N)Cc1c[nH]cn1)[C@@H](C)O)C(C)C)C(C)C)C(=O)N[C@@H](C)C(=O)N[C@@H](CC(N)=O)C(=O)N[C@H](C(N)=O)[C@@H](C)O"}, "B4": {"name": "Peptide 2 (peptide)", "peptide": "HSQGS[αMeF]TSDVSK[αMeF]LDSK([AEEA-AEEA-γGlu-C20 diacid])AAQD[αMeF]VQWIANT-NH2", "modifications": "N-terminus assumed", "SMILES": "CC[C@H](C)[C@H](NC(=O)[C@H](Cc1c[nH]c2ccccc12)NC(=O)[C@H](CCC(N)=O)NC(=O)[C@@H](NC(=O)[C@](C)(Cc1ccccc1)NC(=O)[C@H](CC(=O)O)NC(=O)[C@H](CCC(N)=O)NC(=O)[C@H](C)NC(=O)[C@H](C)NC(=O)[C@H](CCCCNC(=O)COCCOCCNC(=O)COCCOCCNC(=O)CC[C@H](NC(=O)CCCCCCCCCCCCCCCCCCC(=O)O)C(=O)O)NC(=O)[C@H](CO)NC(=O)[C@H](CC(=O)O)NC(=O)[C@H](CC(C)C)NC(=O)[C@](C)(Cc1ccccc1)NC(=O)[C@H](CCCCN)NC(=O)[C@H](CO)NC(=O)[C@@H](NC(=O)[C@H](CC(=O)O)NC(=O)[C@H](CO)NC(=O)[C@@H](NC(=O)[C@](C)(Cc1ccccc1)NC(=O)[C@H](CO)NC(=O)CNC(=O)[C@H](CCC(N)=O)NC(=O)[C@H](CO)NC(=O)[C@@H](N)Cc1c[nH]cn1)[C@@H](C)O)C(C)C)C(C)C)C(=O)N[C@@H](C)C(=O)N[C@@H](CC(N)=O)C(=O)N[C@H](C(N)=O)[C@@H](C)O"}, "B5": {"name": "Peptide 29 (peptide)", "peptide": "H[Aib]QGTFTSDVSK[αMeF]LDSK([AEEA-AEEA-γGlu-C18 diacid])RA[Aib]DFVQWLL[Aib]T-OH", "modifications": "N-terminus assumed", "SMILES": "CC(C)C[C@H](NC(=O)[C@H](Cc1c[nH]c2ccccc12)NC(=O)[C@H](CCC(N)=O)NC(=O)[C@@H](NC(=O)[C@H](Cc1ccccc1)NC(=O)[C@H](CC(=O)O)NC(=O)C(C)(C)NC(=O)[C@H](C)NC(=O)[C@H](CCCNC(=N)N)NC(=O)[C@H](CCCCNC(=O)COCCOCCNC(=O)COCCOCCNC(=O)CC[C@H](NC(=O)CCCCCCCCCCCCCCCCC(=O)O)C(=O)O)NC(=O)[C@H](CO)NC(=O)[C@H](CC(=O)O)NC(=O)[C@H](CC(C)C)NC(=O)[C@](C)(Cc1ccccc1)NC(=O)[C@H](CCCCN)NC(=O)[C@H](CO)NC(=O)[C@@H](NC(=O)[C@H](CC(=O)O)NC(=O)[C@H](CO)NC(=O)[C@@H](NC(=O)[C@H](Cc1ccccc1)NC(=O)[C@@H](NC(=O)CNC(=O)[C@H](CCC(N)=O)NC(=O)C(C)(C)NC(=O)[C@@H](N)Cc1c[nH]cn1)[C@@H](C)O)[C@@H](C)O)C(C)C)C(C)C)C(=O)N[C@@H](CC(C)C)C(=O)NC(C)(C)C(=O)N[C@H](C(=O)O)[C@@H](C)O"}, "B6": {"name": "Peptide 40 (peptide)", "peptide": "H[Aib]QGTFTSDVSK[αMeF]LDSK([AEEA-AEEA-γGlu-C18 diacid])RAQDFVQWLL[Aib]T-OH", "modifications": "N-terminus assumed", "SMILES": "CC(C)C[C@H](NC(=O)[C@H](Cc1c[nH]c2ccccc12)NC(=O)[C@H](CCC(N)=O)NC(=O)[C@@H](NC(=O)[C@H](Cc1ccccc1)NC(=O)[C@H](CC(=O)O)NC(=O)[C@H](CCC(N)=O)NC(=O)[C@H](C)NC(=O)[C@H](CCCNC(=N)N)NC(=O)[C@H](CCCCNC(=O)COCCOCCNC(=O)COCCOCCNC(=O)CC[C@H](NC(=O)CCCCCCCCCCCCCCCCC(=O)O)C(=O)O)NC(=O)[C@H](CO)NC(=O)[C@H](CC(=O)O)NC(=O)[C@H](CC(C)C)NC(=O)[C@](C)(Cc1ccccc1)NC(=O)[C@H](CCCCN)NC(=O)[C@H](CO)NC(=O)[C@@H](NC(=O)[C@H](CC(=O)O)NC(=O)[C@H](CO)NC(=O)[C@@H](NC(=O)[C@H](Cc1ccccc1)NC(=O)[C@@H](NC(=O)CNC(=O)[C@H](CCC(N)=O)NC(=O)C(C)(C)NC(=O)[C@@H](N)Cc1c[nH]cn1)[C@@H](C)O)[C@@H](C)O)C(C)C)C(C)C)C(=O)N[C@@H](CC(C)C)C(=O)NC(C)(C)C(=O)N[C@H](C(=O)O)[C@@H](C)O"}, "B7": {"name": "Peptide 42 (peptide)", "peptide": "H[Aib]QGTFTSDVSK[αMeF]LDSK([AEEA-AEEA-γGlu-C18 diacid])RAQDFVQ[Aib]LVAT-OH", "modifications": "N-terminus assumed", "SMILES": "CC(C)C[C@H](NC(=O)C(C)(C)NC(=O)[C@H](CCC(N)=O)NC(=O)[C@@H](NC(=O)[C@H](Cc1ccccc1)NC(=O)[C@H](CC(=O)O)NC(=O)[C@H](CCC(N)=O)NC(=O)[C@H](C)NC(=O)[C@H](CCCNC(=N)N)NC(=O)[C@H](CCCCNC(=O)COCCOCCNC(=O)COCCOCCNC(=O)CC[C@H](NC(=O)CCCCCCCCCCCCCCCCC(=O)O)C(=O)O)NC(=O)[C@H](CO)NC(=O)[C@H](CC(=O)O)NC(=O)[C@H](CC(C)C)NC(=O)[C@](C)(Cc1ccccc1)NC(=O)[C@H](CCCCN)NC(=O)[C@H](CO)NC(=O)[C@@H](NC(=O)[C@H](CC(=O)O)NC(=O)[C@H](CO)NC(=O)[C@@H](NC(=O)[C@H](Cc1ccccc1)NC(=O)[C@@H](NC(=O)CNC(=O)[C@H](CCC(N)=O)NC(=O)C(C)(C)NC(=O)[C@@H](N)Cc1c[nH]cn1)[C@@H](C)O)[C@@H](C)O)C(C)C)C(C)C)C(=O)N[C@H](C(=O)N[C@@H](C)C(=O)N[C@H](C(=O)O)[C@@H](C)O)C(C)C"}}, "note": "Starred links: 1 amine or outer side, 2 acyl side, 3 side chain; linkers in the order of their positions; H or OH if unused. Non-standard residues stand in square brackets, D forms with d. Groups on a side chain read outwards from the residue. No end group written: not given here. *: point of attachment. C20 diacid = O=C(O)CCCCCCCCCCCCCCCCCCC(=O)*; C18 diacid = O=C(O)CCCCCCCCCCCCCCCCC(=O)*; γGlu = O=C(O)[C@H](CCC(=O)[*:2])N[*:1]; αMeF = C[C@](N)(Cc1ccccc1)C(=O)O; AEEA = NCCOCCOCC(=O)O; Aib = CC(C)(N)C(=O)O"}
{"target": "human GLP-1 receptor (human, UniProt P43220)", "assay": "cell-based or functional assay", "units": {"cAMP production, hGLP-1R EC50 (pM)": "pM"}}
{"binder": "B1", "cAMP production, hGLP-1R EC50 (pM)": 1230}
{"binder": "B2", "cAMP production, hGLP-1R EC50 (pM)": 266}
{"binder": "B3", "cAMP production, hGLP-1R EC50 (pM)": 82.8}
{"binder": "B4", "cAMP production, hGLP-1R EC50 (pM)": 1280}
{"binder": "H[Aib]HGS[αMeF]TSDVSK[αMeF]LDSK([AEEA-AEEA-γGlu-γGlu-C20 diacid])AAQD[αMeF]VQ[Aib]IANT-NH2", "note": "[Peptide 25]", "cAMP production, hGLP-1R EC50 (pM)": 726}
{"binder": "B5", "cAMP production, hGLP-1R EC50 (pM)": 107}
{"binder": "B6", "cAMP production, hGLP-1R EC50 (pM)": 29.9}
{"binder": "B7", "cAMP production, hGLP-1R EC50 (pM)": 665}
{"target": "human glucagon receptor (human, UniProt P47871)", "assay": "cell-based or functional assay", "units": {"cAMP production, hGluc-R EC50 (pM)": "pM"}}
{"binder": "B1", "cAMP production, hGluc-R EC50 (pM)": 2720}
{"binder": "B2", "cAMP production, hGluc-R EC50 (pM)": 321}
{"binder": "B3", "cAMP production, hGluc-R EC50 (pM)": 101}
{"binder": "B4", "cAMP production, hGluc-R EC50 (pM)": 4190}
{"binder": "H[Aib]HGS[αMeF]TSDVSK[αMeF]LDSK([AEEA-AEEA-γGlu-γGlu-C20 diacid])AAQD[αMeF]VQ[Aib]IANT-NH2", "note": "[Peptide 25]", "cAMP production, hGluc-R EC50 (pM)": 1310}
{"binder": "B5", "cAMP production, hGluc-R EC50 (pM)": 629}
{"binder": "B6", "cAMP production, hGluc-R EC50 (pM)": 123}
{"binder": "B7", "cAMP production, hGluc-R EC50 (pM)": 8190}
